In this assay the target is T1, human TROP2 as used in the Biacore measurements (human, UniProt P09758 27-274).
T1 sequence: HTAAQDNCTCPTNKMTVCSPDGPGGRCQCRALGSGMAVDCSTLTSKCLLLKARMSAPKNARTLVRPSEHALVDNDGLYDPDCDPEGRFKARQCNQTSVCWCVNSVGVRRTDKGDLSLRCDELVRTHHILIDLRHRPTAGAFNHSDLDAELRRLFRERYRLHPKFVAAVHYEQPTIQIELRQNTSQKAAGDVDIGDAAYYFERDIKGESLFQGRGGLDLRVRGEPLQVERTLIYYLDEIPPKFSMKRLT
Put plainly: SPR (Biacore), format not stated. Background: SPR reads the build-up and loss of mass on a sensor chip optically.

B1: 2293-C04, affinity matured anti-Trop2 antibody from a synthetic ribosome display human antibody library (antibody, V domains shown)
VH: EVQLVESGGGLVQPGGSLRLSCAASGFNISNKWIHWVRQAPGKGLEWVGWIAPSSGDTDYADSVKGRFTISADTSKNTAYLQMNSLRAEDTAVYYCAREGYNWYWYVLDYWGQGTLVTVSS
VL: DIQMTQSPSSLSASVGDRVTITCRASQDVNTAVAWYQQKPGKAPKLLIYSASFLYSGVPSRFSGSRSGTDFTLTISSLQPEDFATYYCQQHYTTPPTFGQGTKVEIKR
modifications: SEQ ID NO 17 is listed with pAcF at K42; the filing does not say whether the antibody measured by Biacore carried it
On to B1, for which binding was characterised by a dissociation constant (Kd) of 1.1 nM.

(Values after patent publication US20260053942A1 (Astellas, published 2026).)
